This test concerns the target FADD (UniProt Q13158). The test can be described thus: anti-flag immunoprecipitation, immunoblot. The following applies: reference: wild type; sites S116.

As for PEA15 (from UniProt Q15121) S116A, the “binding against the reference” value was “weaker”.

These data come from paper PMC4303232.
